Results reported in US20070003549A1 (published 2007).
Residue numbers refer to the chain shown, from its start.

How the values were obtained:
VEGF-165 [1] = target: T1, VEGF-165 (human, UniProt P15692-4 27-191); assay: supernatant VEGFR2 RBA (ELISA); + = more than 50% reduction of VEGF binding to VEGF R2/Fc; dAb assayed at 50 nM
T1 construct: also called vascular endothelial growth factor

VEGF-165 [2] = target: T1, VEGF-165; assay: VEGF RBA (ELISA): inhibition of VEGF binding to VEGF receptor (R1 or R2 not specified); IgG-like format
VEGF-165 [3] = target: T1, VEGF-165; assay: cell-based or functional assay

T1 sequence (P15692 other isoform, or with tags, fused parts or gaps limits assumed): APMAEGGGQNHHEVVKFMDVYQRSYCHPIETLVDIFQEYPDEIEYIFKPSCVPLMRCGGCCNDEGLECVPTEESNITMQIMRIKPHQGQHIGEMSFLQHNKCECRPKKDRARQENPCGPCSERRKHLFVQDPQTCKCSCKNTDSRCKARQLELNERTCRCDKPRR

B1: TAR15-30 (other)
VH: EVQLLESGGGLVQPGGSLRLSCAASGFTFSDYAMYWVRQAPGKGLEWVSSITARGFITYYADSVKGRFTISRDNSKNTLYLQMNSLRAEDTAVYYCAKSGFPHKSGSNYFDYWGQGTLVTVSS
notes: Human dAb, VH single variable domain
binding result (VEGF-165 [1]): binds

B2: TAR15-6 (other)
VH: EVQLLESGGGLVQPGGSLRLSCAASGFTFHLYDMMWVRQAPGKGLEWVSFIGGDGLNTYYADSVKGRFTISRDNSKNTLYLQMNSLRAEDTAVYYCAKAGTQFDYWGQGTLVTVSS
notes: as for B1
binding result (VEGF-165 [1]): binds

B3: TAR15-24 (other)
VH: EVQLLESGGGLVQPGGSLRLSCAASGFTFTGYEMGWVRQAPGKGLEWVSYISRGGRWTYYADSVKGRFTISRDNSKNTLYLQMNSLRAEDTAVYYCAKSDTMFDYWGQGTLVTVSS
notes: as for B1
binding result (VEGF-165 [1]): binds

B4: TAR15-25 (other)
VH: B3 VH with T30S, G31A, Y50F, R53G, S99Y, D100S, T101E, M102D
notes: as for B1
binding result (VEGF-165 [1]): binds

B5: TAR15-29 (other)
VH: EVQLLESGGGLVQPGGSLRLSCAASGFTFGEYGMYWVRQAPGKGLEWVSSISERGRLTYYADSVKGRFTISRDNSKNTLYLQMNNLRAEDTAVYYCAKSALSSEGFSRSFDYWGQGTLVTVSS
notes: as for B1
binding result (VEGF-165 [1]): binds

B6: TAR15-23 (other)
VH: EVQLLESGGGLVQPGGSLRLSCAASGFTFKAYEMGWVRQAPGKGLEWVSGISPNGGWTYYADSVKGRFTISRDNSKNTLYLQMNSLRAEDTAVYYCAKESISPTPLGFDYWGQGTLVTVSS
notes: as for B1
binding result (VEGF-165 [1]): binds

B7: TAR15-5 (other)
VH: EVQLLESGGGLVQPGGSLRLSCAASGFTFRLYDMVWVRQAPGKGLEWVSYISSGGSGTYYADSVKGRFTISRDNSKNTLYLQMNSLRAEDTAVYYCAKAGGRASFDYWGQGTLVTVSS
notes: as for B1
binding result (VEGF-165 [1]): binds

B8: TAR15-27 (other)
VH: EVQLLESGGGLVQPGGSLRLSCAASGFTFQFYKMGWVRQAPGKGLEWVSSISSVGDATYYADSVKGRFTISRDNSKNTLYLQMNSLRAEDTAVYYCAKMGGGPPTYVVYFDYWGQGTLVTVSS
notes: as for B1
binding result (VEGF-165 [1]): binds

B9: TAR15-8 (other)
VH: EVQLLESGGGLVQPGGSLRLSCAASGFTFQWYPMWWVRQAPGKGLEWVSLIEGQGDRTYYADSVKGRFTISRDNSKNTLYLQMNSLRAEDTAVYYCAKAGDRTAGSRGNSFDYWGQGTLVTVSS
notes: as for B1
binding result (VEGF-165 [1]): binds

B10: TAR15-7 (other)
VH: EVQLLESGGGLVQPGGSLRLSCAASGFTFNKYPMMWVRQAPGKGLEWVSEISPSGQDTYYADSVKGRFTISRDNSKNTLYLQMNSLRAEDTAVYYCAKNPQILSNFDYWGQGTLVTVSS
notes: as for B1
binding result (VEGF-165 [1]): binds

B11: IgG-like format No. 10 (DOM15-26 VH on CH / DOM16-52 VH on CK) (bispecific antibody, V domains shown)
V domain 1: EVQLLESGGGLVQPGGSLRLSCAASGFTFGAYPMMWVRQAPGKGLEWVSEISPSGSYTYYADSVKGRFTISRDNSKNTLYLQMNSLRAEDTAVYYCAKDPRKFDYWGQGTLVTVSS
V domain 2: EVQLLESGGGLVQPGGSLRLSCAASGFTFAEQPMTWARQAPGKGLEWVSSISSFGDLTYYADSVKGRFTISRDNSKNTLYLQMNSLRAEDTAVYYCAKGVYRISRFDYWGQGTLVTVSS
notes: IgG-like format; also called IgG 10
IC50 (VEGF-165 [2]): 0.05 nM
VEGF (bioassay) ND50 (VEGF-165 [3]): 0.2 nM

B12: IgG-like format No. 19 (DOM15-26 VH on CH / Dummy VK on CK) (antibody, V domains shown, not shown: a dimerising Fc or GST)
VH: B11 V domain 1
notes: IgG-like format; also called IgG 19
IC50 (VEGF-165 [2]): 4.8 nM
